B1: sus1 promoter probe (dsDNA)
DNA 1: CTGAACCGTTTTTCGGTTTCAGTTTTCTCTGCTGACTGAAGCTTC
DNA 2: GAAGCTTCAGTCAGCAGAGAAAACTGAAACCGAAAAACGGTTCAG
B2: c1 promoter probe (dsDNA)
DNA 1: CATCATTCGATCAGTTTTCGTTCTGATGCAGTTTTCGATAAATGC
DNA 2: GCATTTATCGAAAACTGCATCAGAACGAAAACTGATCGAATGATG
B3: fl3 promoter probe (dsDNA)
DNA 1: TGTACAAATATTTCTACTGACAGTTTTTAAGAAACCACCTGTGGA
DNA 2: TCCACAGGTGGTTTCTTAAAAACTGTCAGTAGAAATATTTGTACA
B4: vp1 promoter probe (dsDNA)
DNA 1: GTCCTTGAAACTGCAATCCAAATCTACGCAACCGTTTTGCATGCCACTGTTTGTA
DNA 2: TACAAACAGTGGCATGCAAAACGGTTGCGTAGATTTGGATTGCAGTTTCAAGGAC

What follows are binders tested against DED1 (R2R3-MYB), GST fusion (Zea mays, UniProt A0A804M0V9 1-450) (assay: EMSA; 5 mM Mg2+; EMSA: 50 ng DED1-GST, 6 ng probe in 20 uL 10 mM Tris pH 7.5, 50 mM KCl, 1 mM DTT, 2.5% glycerol, 5 mM MgCl2, 50 ug/uL (so in the source) poly(dI-dC), 0.05% NP-40, 25). Settings: protein: recombinant; tags: GST (N-terminal, pGEX-4T-1); label: biotin 3' end on one strand; blunt.
DED1 (R2R3-MYB), GST fusion, sequence (A0A804M0V9 entry or part of it): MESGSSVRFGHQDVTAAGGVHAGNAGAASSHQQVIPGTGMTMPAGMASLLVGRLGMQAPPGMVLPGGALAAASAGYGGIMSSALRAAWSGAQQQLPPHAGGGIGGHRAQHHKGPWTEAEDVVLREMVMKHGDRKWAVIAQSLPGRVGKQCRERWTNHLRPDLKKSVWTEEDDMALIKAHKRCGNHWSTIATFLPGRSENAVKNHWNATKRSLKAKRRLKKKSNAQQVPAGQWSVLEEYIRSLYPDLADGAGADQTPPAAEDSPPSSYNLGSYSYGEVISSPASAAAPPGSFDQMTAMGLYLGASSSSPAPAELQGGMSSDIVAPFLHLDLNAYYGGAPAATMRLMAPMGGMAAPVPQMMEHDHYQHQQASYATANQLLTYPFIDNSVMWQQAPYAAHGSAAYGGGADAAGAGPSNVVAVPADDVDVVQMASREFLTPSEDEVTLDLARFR

Binding result, binds:
B1, B2, B3, B4
